Data on 7 molecules can be found in US20240239875A1 (published 2024).

Residue numbers refer to the chain shown, from its start.

Common to all, as to test: ELISA
Assay [1] deals with SARS-CoV-2 prefusion stabilized trimer protein (WIV02 isolate spike protein) (UniProt P0DTC2 14-1213).
For a further assay, the target named is T1, MERS spike protein (MERS-CoV, UniProt K9N5Q8 18-1296).
T1 chain: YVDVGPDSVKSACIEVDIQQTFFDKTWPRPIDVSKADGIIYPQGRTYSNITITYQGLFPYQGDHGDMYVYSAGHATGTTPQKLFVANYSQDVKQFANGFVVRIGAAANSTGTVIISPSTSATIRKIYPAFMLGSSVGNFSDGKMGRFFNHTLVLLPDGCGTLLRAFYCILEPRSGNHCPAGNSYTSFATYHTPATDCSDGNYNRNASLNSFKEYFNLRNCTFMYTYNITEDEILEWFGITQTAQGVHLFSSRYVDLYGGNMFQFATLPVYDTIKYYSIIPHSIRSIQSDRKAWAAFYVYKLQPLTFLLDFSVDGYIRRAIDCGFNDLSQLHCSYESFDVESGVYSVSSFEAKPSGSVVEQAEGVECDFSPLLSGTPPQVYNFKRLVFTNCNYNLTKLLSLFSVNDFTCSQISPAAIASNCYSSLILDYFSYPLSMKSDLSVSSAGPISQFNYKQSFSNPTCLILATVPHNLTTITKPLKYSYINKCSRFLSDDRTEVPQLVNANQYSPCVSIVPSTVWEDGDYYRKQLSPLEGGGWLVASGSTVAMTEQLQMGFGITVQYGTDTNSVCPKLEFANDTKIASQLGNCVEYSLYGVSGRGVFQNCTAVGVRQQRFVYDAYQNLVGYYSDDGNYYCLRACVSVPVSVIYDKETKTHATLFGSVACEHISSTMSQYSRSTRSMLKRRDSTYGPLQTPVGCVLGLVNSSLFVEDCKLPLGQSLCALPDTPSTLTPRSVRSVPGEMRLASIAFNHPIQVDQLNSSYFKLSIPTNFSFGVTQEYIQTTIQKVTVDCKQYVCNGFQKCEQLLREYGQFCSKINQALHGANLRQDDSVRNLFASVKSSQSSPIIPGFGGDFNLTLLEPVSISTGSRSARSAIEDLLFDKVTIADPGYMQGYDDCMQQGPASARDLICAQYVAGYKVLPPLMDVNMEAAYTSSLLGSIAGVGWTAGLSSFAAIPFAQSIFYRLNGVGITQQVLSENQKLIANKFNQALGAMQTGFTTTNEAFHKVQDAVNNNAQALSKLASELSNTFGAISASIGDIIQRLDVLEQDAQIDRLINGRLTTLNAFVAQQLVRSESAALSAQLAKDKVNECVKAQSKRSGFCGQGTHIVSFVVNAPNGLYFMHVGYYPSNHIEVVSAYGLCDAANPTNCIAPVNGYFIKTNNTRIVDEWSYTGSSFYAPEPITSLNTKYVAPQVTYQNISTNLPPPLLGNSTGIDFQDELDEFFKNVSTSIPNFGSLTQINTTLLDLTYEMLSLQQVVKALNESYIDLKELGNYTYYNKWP

The target in the next assay is SARS-CoV-1 spike protein (SARS-CoV-1, UniProt P59594 14-1195).
A further assay has as its target T2, HCoV229E spike protein (HCoV-229E, UniProt P15423 17-1103).
T2 chain: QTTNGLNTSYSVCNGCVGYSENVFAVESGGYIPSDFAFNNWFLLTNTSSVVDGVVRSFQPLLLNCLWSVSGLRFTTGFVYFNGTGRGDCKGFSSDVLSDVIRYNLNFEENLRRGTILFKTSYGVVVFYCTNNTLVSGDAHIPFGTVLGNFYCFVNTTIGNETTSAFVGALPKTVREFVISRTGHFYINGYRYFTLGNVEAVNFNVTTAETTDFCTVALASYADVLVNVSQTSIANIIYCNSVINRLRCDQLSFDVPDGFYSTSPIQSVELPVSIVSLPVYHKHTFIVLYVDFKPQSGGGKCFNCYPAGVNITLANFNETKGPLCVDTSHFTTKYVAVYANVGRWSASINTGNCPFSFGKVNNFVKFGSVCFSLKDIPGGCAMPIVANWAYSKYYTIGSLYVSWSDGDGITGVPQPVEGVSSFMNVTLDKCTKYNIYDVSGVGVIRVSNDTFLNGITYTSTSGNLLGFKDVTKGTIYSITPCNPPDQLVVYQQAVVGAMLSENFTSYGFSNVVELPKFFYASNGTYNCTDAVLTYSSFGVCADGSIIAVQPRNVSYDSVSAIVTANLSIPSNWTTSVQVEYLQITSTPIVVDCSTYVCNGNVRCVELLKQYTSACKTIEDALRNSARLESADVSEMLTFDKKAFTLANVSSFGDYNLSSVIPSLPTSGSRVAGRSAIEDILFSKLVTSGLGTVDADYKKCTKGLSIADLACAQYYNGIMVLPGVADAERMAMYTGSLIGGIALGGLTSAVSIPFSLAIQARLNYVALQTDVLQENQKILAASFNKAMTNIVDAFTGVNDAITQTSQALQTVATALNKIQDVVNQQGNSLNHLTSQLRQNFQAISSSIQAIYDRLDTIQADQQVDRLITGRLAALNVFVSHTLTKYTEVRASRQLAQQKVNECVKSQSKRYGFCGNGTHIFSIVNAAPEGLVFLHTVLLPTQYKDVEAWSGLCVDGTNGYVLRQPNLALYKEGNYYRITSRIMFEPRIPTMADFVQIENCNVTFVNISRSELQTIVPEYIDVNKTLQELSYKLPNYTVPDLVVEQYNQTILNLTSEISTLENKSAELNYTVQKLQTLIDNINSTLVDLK

B1: 7-D7-A (antibody, V domains shown)
VH: QVQLKESGPGLVAPSQSLSITCTVSGFSLTSYAISWVRQPPGKGLEWLGVIWPGGGTNYNSALKSRLSISKDNSKSQVFLKMNSLQTDDTAKYYCARTGYYFDYWGQGTTLTVSS
VL: QLILTQSPAIMSASPGEKVTMTCSASLSVNYMYWFQQKPGTSPKRWIHDTSKLASGVPARFSGSGSGTSYSLTISSMEAEDAATYYCQQWSSNPPMYTFGGGTKLEIK
One may read the EC50 as the concentration at which the effect is half-maximal. Higher therefore signals a less potent agent. For B1, the EC50 in assay [1] was 0.72 nM; with MERS spike protein it was 0.9 nM; with SARS-CoV-1 spike protein, 3.05 nM; in the assay with HCoV229E spike protein, 0.13 nM.

B2: 8-A17-A (antibody, V domains shown)
VH: B1 VH with I51V, S70N, A91G, K92R, Y101H
VL: B1 VL with L2I, I3V, A25V, L27S, N30S, Y33H, F35Y, P39S, H48Y
Regarding B2, the EC50 in assay [1] turned out to be 0.27 nM; with MERS spike protein, 0.49 nM; with SARS-CoV-1 spike protein, 0.36 nM; with HCoV229E spike protein, 0.01 nM.

B3: 1-L10-A (antibody, V domains shown)
VH: EVKLEESGGGLVQPGGSMKLSCVASGFTFNNYWMNWVRQSPEKGLEWVAQMRLKSDNYATHYAESVKGRFTISRDDSKSSVYLQMNNLRAEDTGIYYCIEGYWTYWGQGTLVTVSA
VL: QIVLTQSPAIMSASLGERVTMTCTASSSVSSSYLHWYQQKPGSSPKLWIYSTSNLASGVPARFSGNGSGTSYSLTISSMEAEDAATYYCLQYHRSPPYTFGGGTKLEIK
Turning to B3, the concentration giving a half-maximal response (EC50) was 111 nM in assay [1], 3.47 nM with MERS spike protein, 5.27 nM with SARS-CoV-1 spike protein and 0.12 nM with HCoV229E spike protein.

B4: 2-G20-A (antibody, V domains shown)
VH: EVQLQQSGPELVKPGASVKMSCKASGYTFPSYVLHWVKQKPGQGLEWIGYIYPYNDGTNYNEKFKGKATLTSDKSSSTAYMELSSLTSEDSAVYYCARGDYGDSAWFPYWGQGTLVTVSA
VL: DIVLTQSPASLAVSLGQRATISCRASKSVSTSGYSYMHWYQQKPGQPPKLLIYLASNLKSGVPARFSGGGSGTDFTLNIHPVEEEDAATYYCQLSRELPWTFGGGTKLEIK
In the case of B4, the EC50 in assay [1] was 1.83 nM; in the assay with MERS spike protein, 8.71 nM; with SARS-CoV-1 spike protein, 1.44 nM; with HCoV229E spike protein, 0.1 nM.

B5: 9-F6-A (antibody, V domains shown)
VH: EVQLQQSGPELVKPGASVKMSCKASGYTFTSYIMHWVKQKPGQGLEWIGYILPYNDGTKYNEKFKGKATLTSDKSSSTAYMELRSLTSEDSAVYYCARWGYSNFLDSWGQGTTLTVSS
VL: DIQMTQTTSSLSASLGDRVTISCRASQDINNYLNWYQQKPDGTVKLLIYYTSRLHSGVPSRFSGSGSGTDYSLTIRNLEQEDIATYFCQQGNTLPPTFGGGTKLEIK
For the molecule B5, the EC50 came out at 0.59 nM in assay [1], 1.67 nM with MERS spike protein, 0.46 nM with SARS-CoV-1 spike protein and 0.03 nM with HCoV229E spike protein.

B6: 1-B11-A (antibody, V domains shown)
VH: QVQLQQSGPELVKPGASVKISCKASGYTFTDHYINWVKQRPGQGLEWIGWIFPGSGSTYYNEQFKGKATLTVDKSSNTAYMLLSSLTSEDSAVYFCARSGGLRLGFAYWGQGTLVTVSA
VL: B5 VL with N30S, R76S, A84S, G91V, P96Y
B6: the 50% effective concentration (EC50) in assay [1] worked out at 10.7 nM; with MERS spike protein, 0.63 nM; with SARS-CoV-1 spike protein, 0.55 nM.

B7: 6-O12-A (antibody, V domains shown)
VH: QVQLQQPGTELVKPGASVKLSCKASGYTFTSYWMHWVKQRPGQGLEWIGNINPSNGGTNYNEKFRSKATLTVDKSSSTAYMQLSSLTSEDSAVYYCARLGWFLPLGSWGQGTTLTVSS
VL: QIVLTQSPAIMSASLGEVITLTCSASSSVSYMHWYQQKSGTSPKLLIYSTSNLASGVPSRFSGSGSGTFYSLTISSVEAEDAADYYCHQWSGYMYTFGGGTKLEIK
Take B7: the concentration giving a half-maximal response (EC50) came out at 0.39 nM in assay [1], 0.25 nM in the assay with MERS spike protein, 0.24 nM with SARS-CoV-1 spike protein and 0.15 nM with HCoV229E spike protein.
